Experimental data as given in PMC5597230, “Identification and characterization of preferred DNA-binding sites for the Thermus thermophilus transcriptional regulator FadR”.
Residue numbers refer to the chain shown, from its start.

What was measured:
Details in all cases: protein: recombinant; tags: none stated (pET-11a); chain copies: 2; label: IRD700
FadR [1] = target: T1, FadR (Thermus thermophilus HB8, UniProt Q5SM42 1-205); assay: EMSA; EMSA as in previous SbtR study (buffer, salt, pH, temperature not given in the material); FadR titrations up to 600 nM, IRD700-labeled probes
T1 sequence: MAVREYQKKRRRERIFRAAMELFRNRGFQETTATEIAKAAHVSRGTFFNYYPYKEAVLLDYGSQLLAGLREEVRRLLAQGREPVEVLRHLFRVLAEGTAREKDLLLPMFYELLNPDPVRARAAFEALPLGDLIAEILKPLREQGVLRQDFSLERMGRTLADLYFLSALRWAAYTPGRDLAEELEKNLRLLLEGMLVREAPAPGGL

FadR [2] = target: T1, FadR; assay: EMSA; Kd in figure only; all promoter probes 0.053-11 nM; EMSA as in previous SbtR study (buffer, salt, pH, temperature not given in the material); FadR titrations up to 600 nM, IRD700-labeled probes
FadR [3] = target: T1, FadR; assay: EMSA; very low KD stated; value in figure only; EMSA as in previous SbtR study (buffer, salt, pH, temperature not given in the material); FadR titrations up to 600 nM, IRD700-labeled probes
FadR [4] = target: T1, FadR; assay: EMSA; range stated for m1,m3,m4,m5,m7; exact value only in figure; EMSA as in previous SbtR study (buffer, salt, pH, temperature not given in the material); FadR titrations up to 600 nM, IRD700-labeled probes

B1: ST2_FadR_R5_wt (dsDNA)
DNA 1: AGGAATTCGTGCAGAGGTGAATTTGGACTTAGTCCAATTACCATCCCTCCAGAAGCTTGG
DNA 2: CCAAGCTTCTGGAGGGATGGTAATTGGACTAAGTCCAAATTCACCTCTGCACGAATTCCT
- Kd (FadR [1]): 0.17 nM

B2: ST2_FadR_TTHA0604 (dsDNA)
DNA 1: B1 DNA 1 with G25A, G26T, T30G, A31G, C35T
DNA 2: B1 DNA 2 with G26A, T30C, A31C, C35A, C36T
- binding result (FadR [2]): binds

B3: ST2_FadR_TTHA0846 (dsDNA)
DNA 1: B1 DNA 1 with G25A, G26T, T30C, C34A, A37T
DNA 2: B1 DNA 2 with T24A, G27T, A31G, C35A, C36T
- binding result (FadR [2]): binds

B4: ST2_FadR_TTHA1118 (dsDNA)
DNA 1: B1 DNA 1 with G25A, G26T, T30C, A31G, C34A, C35A
DNA 2: B1 DNA 2 with G26T, G27T, T30C, A31G, C35A, C36T
- binding result (FadR [2]): binds

B5: ST2_FadR_TTHB017 (dsDNA)
DNA 1: B1 DNA 1 with G25A, G26T, T30G, A31G
DNA 2: B1 DNA 2 with T30C, A31C, C35A, C36T
- binding result (FadR [3]): binds

B6: ST2_FadR_TTHA0390 (dsDNA)
DNA 1: B1 DNA 1 with G26A, T29C, T30G, A31G, C34A, C35T
DNA 2: B1 DNA 2 with G26A, G27T, T30C, A31C, A32G, C35T
- binding result (FadR [2]): binds

B7: ST2_FadR_TTHA1463 (dsDNA)
DNA 1: B1 DNA 1 with G26A, T29C, T30C, A31G, C34A
DNA 2: B1 DNA 2 with G27T, T30C, A31G, A32G, C35T
- binding result (FadR [3]): binds

B8: ST2_FadR_TTHA1144 (dsDNA)
DNA 1: B1 DNA 1 with G25A, T30C, A31G, C35A
DNA 2: B1 DNA 2 with G26T, T30C, A31G, C36T
- binding result (FadR [2]): binds

B9: ST2_FadR_TTHA0103 (dsDNA)
DNA 1: B1 DNA 1 with T29C, A31G, C34A, C35A
DNA 2: B1 DNA 2 with G26T, G27T, T30C, A32G
- binding result (FadR [2]): binds

B10: ST2_FadR_R5_m1 (dsDNA)
DNA 1: B1 DNA 1 with T23G
DNA 2: B1 DNA 2 with A38C
- Kd (FadR [4]): ~4.69 nM

B11: ST2_FadR_R5_m3 (dsDNA)
DNA 1: B1 DNA 1 with G25C
DNA 2: B1 DNA 2 with C36G
- Kd (FadR [4]): ~4.69 nM

B12: ST2_FadR_R5_m4 (dsDNA)
DNA 1: B1 DNA 1 with G26C
DNA 2: B1 DNA 2 with C35G
- Kd (FadR [4]): ~4.69 nM

B13: ST2_FadR_R5_m5 (dsDNA)
DNA 1: B1 DNA 1 with A27G
DNA 2: B1 DNA 2 with T34C
- Kd (FadR [4]): ~4.69 nM

B14: ST2_FadR_R5_m7 (dsDNA)
DNA 1: B1 DNA 1 with T29A
DNA 2: B1 DNA 2 with A32T
- Kd (FadR [4]): ~4.69 nM

B15: ST2_FadR_TTHA0402 (dsDNA)
DNA 1: B1 DNA 1 with G26A, T29C, T30C, C34A, C35T
DNA 2: B1 DNA 2 with G26A, G27T, A31G, A32G, C35T
- binding result (FadR [2]): binds
